Laboratory results as given in US11833164B2, “Methods of treating Fabry disease in patients having a mutation in the GLA gene” (Amicus Therapeutics, Inc., priority 2019, dated 2023).

B1: H115N (protein)
chain: MQLRNPELHLGCALALRFLALVSWDIPGARALDNGLARTPTMGWLHWERFMCNLDCQEEPDSCISEKLFMEMAELMVSEGWKDAGYEYLCIDDCWMAPQRDSEGRLQADPQRFPNGIRQLANYVHSKGLKLGIYADVGNKTCAGFPGSFGYYDIDAQTFADWGVDLLKFDGCYCDSLENLADGYKHMSLALNRTGRSIVYSCEWPLYMWPFQKPNYTEIRQYCNHWRNFADIDDSWKSIKSILDWTSFNQERIVDVAGPGGWNDPDMLVIGNFGLSWNQQVTQMALWAIMAAPLFMSNDLRHISPQAKALLQDKDVIAINQDPLGKQGYQLRQGDNFEVWERPLSGLAWAVAMINRQEIGGPRSYTIAVASLGKGVACNPACFITQLLPVKRKLGFYEWTSRLRSHINPTGTVLLQLENTMQMSLKDLL
B2: Y123F (protein)
chain: MQLRNPELHLGCALALRFLALVSWDIPGARALDNGLARTPTMGWLHWERFMCNLDCQEEPDSCISEKLFMEMAELMVSEGWKDAGYEYLCIDDCWMAPQRDSEGRLQADPQRFPHGIRQLANFVHSKGLKLGIYADVGNKTCAGFPGSFGYYDIDAQTFADWGVDLLKFDGCYCDSLENLADGYKHMSLALNRTGRSIVYSCEWPLYMWPFQKPNYTEIRQYCNHWRNFADIDDSWKSIKSILDWTSFNQERIVDVAGPGGWNDPDMLVIGNFGLSWNQQVTQMALWAIMAAPLFMSNDLRHISPQAKALLQDKDVIAINQDPLGKQGYQLRQGDNFEVWERPLSGLAWAVAMINRQEIGGPRSYTIAVASLGKGVACNPACFITQLLPVKRKLGFYEWTSRLRSHINPTGTVLLQLENTMQMSLKDLL
B3: Y123S (protein)
chain: MQLRNPELHLGCALALRFLALVSWDIPGARALDNGLARTPTMGWLHWERFMCNLDCQEEPDSCISEKLFMEMAELMVSEGWKDAGYEYLCIDDCWMAPQRDSEGRLQADPQRFPHGIRQLANSVHSKGLKLGIYADVGNKTCAGFPGSFGYYDIDAQTFADWGVDLLKFDGCYCDSLENLADGYKHMSLALNRTGRSIVYSCEWPLYMWPFQKPNYTEIRQYCNHWRNFADIDDSWKSIKSILDWTSFNQERIVDVAGPGGWNDPDMLVIGNFGLSWNQQVTQMALWAIMAAPLFMSNDLRHISPQAKALLQDKDVIAINQDPLGKQGYQLRQGDNFEVWERPLSGLAWAVAMINRQEIGGPRSYTIAVASLGKGVACNPACFITQLLPVKRKLGFYEWTSRLRSHINPTGTVLLQLENTMQMSLKDLL
B4: G116R (protein)
chain: MQLRNPELHLGCALALRFLALVSWDIPGARALDNGLARTPTMGWLHWERFMCNLDCQEEPDSCISEKLFMEMAELMVSEGWKDAGYEYLCIDDCWMAPQRDSEGRLQADPQRFPHRIRQLANYVHSKGLKLGIYADVGNKTCAGFPGSFGYYDIDAQTFADWGVDLLKFDGCYCDSLENLADGYKHMSLALNRTGRSIVYSCEWPLYMWPFQKPNYTEIRQYCNHWRNFADIDDSWKSIKSILDWTSFNQERIVDVAGPGGWNDPDMLVIGNFGLSWNQQVTQMALWAIMAAPLFMSNDLRHISPQAKALLQDKDVIAINQDPLGKQGYQLRQGDNFEVWERPLSGLAWAVAMINRQEIGGPRSYTIAVASLGKGVACNPACFITQLLPVKRKLGFYEWTSRLRSHINPTGTVLLQLENTMQMSLKDLL
B5: I117T (protein)
chain: MQLRNPELHLGCALALRFLALVSWDIPGARALDNGLARTPTMGWLHWERFMCNLDCQEEPDSCISEKLFMEMAELMVSEGWKDAGYEYLCIDDCWMAPQRDSEGRLQADPQRFPHGTRQLANYVHSKGLKLGIYADVGNKTCAGFPGSFGYYDIDAQTFADWGVDLLKFDGCYCDSLENLADGYKHMSLALNRTGRSIVYSCEWPLYMWPFQKPNYTEIRQYCNHWRNFADIDDSWKSIKSILDWTSFNQERIVDVAGPGGWNDPDMLVIGNFGLSWNQQVTQMALWAIMAAPLFMSNDLRHISPQAKALLQDKDVIAINQDPLGKQGYQLRQGDNFEVWERPLSGLAWAVAMINRQEIGGPRSYTIAVASLGKGVACNPACFITQLLPVKRKLGFYEWTSRLRSHINPTGTVLLQLENTMQMSLKDLL
B6: A121V (protein)
chain: MQLRNPELHLGCALALRFLALVSWDIPGARALDNGLARTPTMGWLHWERFMCNLDCQEEPDSCISEKLFMEMAELMVSEGWKDAGYEYLCIDDCWMAPQRDSEGRLQADPQRFPHGIRQLVNYVHSKGLKLGIYADVGNKTCAGFPGSFGYYDIDAQTFADWGVDLLKFDGCYCDSLENLADGYKHMSLALNRTGRSIVYSCEWPLYMWPFQKPNYTEIRQYCNHWRNFADIDDSWKSIKSILDWTSFNQERIVDVAGPGGWNDPDMLVIGNFGLSWNQQVTQMALWAIMAAPLFMSNDLRHISPQAKALLQDKDVIAINQDPLGKQGYQLRQGDNFEVWERPLSGLAWAVAMINRQEIGGPRSYTIAVASLGKGVACNPACFITQLLPVKRKLGFYEWTSRLRSHINPTGTVLLQLENTMQMSLKDLL
B7: Y123N (protein)
chain: MQLRNPELHLGCALALRFLALVSWDIPGARALDNGLARTPTMGWLHWERFMCNLDCQEEPDSCISEKLFMEMAELMVSEGWKDAGYEYLCIDDCWMAPQRDSEGRLQADPQRFPHGIRQLANNVHSKGLKLGIYADVGNKTCAGFPGSFGYYDIDAQTFADWGVDLLKFDGCYCDSLENLADGYKHMSLALNRTGRSIVYSCEWPLYMWPFQKPNYTEIRQYCNHWRNFADIDDSWKSIKSILDWTSFNQERIVDVAGPGGWNDPDMLVIGNFGLSWNQQVTQMALWAIMAAPLFMSNDLRHISPQAKALLQDKDVIAINQDPLGKQGYQLRQGDNFEVWERPLSGLAWAVAMINRQEIGGPRSYTIAVASLGKGVACNPACFITQLLPVKRKLGFYEWTSRLRSHINPTGTVLLQLENTMQMSLKDLL
B8: Y123D (protein)
chain: MQLRNPELHLGCALALRFLALVSWDIPGARALDNGLARTPTMGWLHWERFMCNLDCQEEPDSCISEKLFMEMAELMVSEGWKDAGYEYLCIDDCWMAPQRDSEGRLQADPQRFPHGIRQLANDVHSKGLKLGIYADVGNKTCAGFPGSFGYYDIDAQTFADWGVDLLKFDGCYCDSLENLADGYKHMSLALNRTGRSIVYSCEWPLYMWPFQKPNYTEIRQYCNHWRNFADIDDSWKSIKSILDWTSFNQERIVDVAGPGGWNDPDMLVIGNFGLSWNQQVTQMALWAIMAAPLFMSNDLRHISPQAKALLQDKDVIAINQDPLGKQGYQLRQGDNFEVWERPLSGLAWAVAMINRQEIGGPRSYTIAVASLGKGVACNPACFITQLLPVKRKLGFYEWTSRLRSHINPTGTVLLQLENTMQMSLKDLL
B9: I117M (protein)
chain: MQLRNPELHLGCALALRFLALVSWDIPGARALDNGLARTPTMGWLHWERFMCNLDCQEEPDSCISEKLFMEMAELMVSEGWKDAGYEYLCIDDCWMAPQRDSEGRLQADPQRFPHGMRQLANYVHSKGLKLGIYADVGNKTCAGFPGSFGYYDIDAQTFADWGVDLLKFDGCYCDSLENLADGYKHMSLALNRTGRSIVYSCEWPLYMWPFQKPNYTEIRQYCNHWRNFADIDDSWKSIKSILDWTSFNQERIVDVAGPGGWNDPDMLVIGNFGLSWNQQVTQMALWAIMAAPLFMSNDLRHISPQAKALLQDKDVIAINQDPLGKQGYQLRQGDNFEVWERPLSGLAWAVAMINRQEIGGPRSYTIAVASLGKGVACNPACFITQLLPVKRKLGFYEWTSRLRSHINPTGTVLLQLENTMQMSLKDLL

System: mutant form of α-Gal A expressed in HEK-293 cells
Assay: HEK assay (GLP HEK / Migalastat Amenability Assay): α-Gal A activity in lysates of transiently transfected HEK-293 cells incubated with or without 10 μM migalastat
Assay type: cell-based, human
Settings: for Absolute increase (% WT): 10 μM migalastat versus baseline; for Relative increase: 10 μM migalastat α-Gal A activity relative to baseline; for 10 μM migalastat α-Gal A activity (% WT): 5 days; for 10 μM migalastat α-Gal A activity (% WT) / Baseline α-Gal A activity (% WT): percentage of baseline wild-type α-Gal A activity; for 10 μM migalastat α-Gal A activity (% WT) / Baseline α-Gal A activity (% WT) / Baseline α-Gal A activity / 10 μM migalastat α-Gal A activity: mean ± SEM; for Baseline α-Gal A activity (% WT): absence of migalastat; for Baseline α-Gal A activity / 10 μM migalastat α-Gal A activity: lysates of HEK-293 cells transfected with the mutant form; for Baseline α-Gal A activity: incubated 5 days in the absence of migalastat; for 10 μM migalastat α-Gal A activity: incubated 5 days with 10 μM migalastat
Procedure: Such mutations or variants are also referred to herein as “HEK assay amenable” mutations or variants.
The α-Gal A activity is expressed as the nmoles of free 4-MU released per milligram of protein per hour (nmol/mg/hr).
In Table 7, values for the mean±standard error of the mean (SEM) were calculated. nmol/mg/hr indicates “nmoles of free 4-MU released per mg of protein per hour”. WT indicates “wild-type”. NC indicates “not calculable”. N/A indicates “not applicable”.

Molecule	Absolute increase (% WT)	Relative increase	10 μM migalastat α-Gal A activity (% WT)	Baseline α-Gal A activity (% WT)	Baseline α-Gal A activity	10 μM migalastat α-Gal A activity
B1	30.1 % WT	1.7	75 ± 2.5 % WT	44.9 ± 2.5 % WT	13745 ± 890 nmol/mg/h	23018 ± 1098 nmol/mg/h
B2	33.8 % WT	1.5	97.4 ± 3.4 % WT	63.6 ± 3.3 % WT	22066 ± 1408 nmol/mg/h	33544 ± 1384 nmol/mg/h
B3	19.3 % WT	1.5	61 ± 3.6 % WT	41.7 ± 2.1 % WT	14556 ± 986 nmol/mg/h	21255 ± 1484 nmol/mg/h
B4	9.9 % WT	2.7	15.4 ± 1.5 % WT	5.4 ± 0.3 % WT	1922 ± 143 nmol/mg/h	5251 ± 464 nmol/mg/h
B5	4.7 % WT	2.1	9 ± 0.9 % WT	4.3 ± 0.2 % WT	1607 ± 54 nmol/mg/h	3303 ± 308 nmol/mg/h
B6	56.7 % WT	3.7	78.2 ± 4.2 % WT	21.5 ± 1.2 % WT	7301 ± 253 nmol/mg/h	26639 ± 1124 nmol/mg/h
B7	19.7 % WT	1.5	60.6 ± 4.1 % WT	40.9 ± 3.2 % WT	13817 ± 816 nmol/mg/h	20466 ± 846 nmol/mg/h
B8	10.2 % WT	1.2	53.6 ± 2.7 % WT	43.4 ± 1.6 % WT	15093 ± 815 nmol/mg/h	18723 ± 1237 nmol/mg/h
B9	29.4 % WT	1.6	83.5 ± 3.6 % WT	54.2 ± 3.9 % WT	20226 ± 1373 nmol/mg/h	31280 ± 1153 nmol/mg/h
